Results as given in patent publication US12332245B2, “Cancer biomarkers and methods of use thereof” (THE REGENTS OF THE UNIVERSITY OF CALIFORNIA, priority 2006, dated 2025).

B1: activin A: a member of the TGF-β superfamily; a homodimer of the activin βA subunits (protein, UniProt P08476 311-426, looked up)
Inhibin beta A chain: GLECDGKVNICCKKQFFVSFKDIGWNDWIIAPSGYHANYCEGECPSHIAGTSGSSLSFHSTVINHYRMRGHSPFANLKSCCVPTKLRPMSMLYYDDGQNIIKKDIQNMIVEECGCS
modifications: Inhibin beta A chain

Assays:
[1] = test system: COX-2 in vHMEC over expressing TRF2; assay: phospho-p38 inhibitor treatment of vHMEC over expressing TRF2; COX-2 by Q-PCR and immunoblot; format: cell-based, human; conditions: early passage vHMEC expressing TRF2, SB203580 24 hrs
Text: Cell Culture: Human mammary epithelial cells (vHMEC) were isolated from reduction mammoplasty (RM) of four individuals RM9, RM15, RM16 and RM18. HMEC undergo a spontaneous proliferation barrier between 8 and 12 population doublings. Variant human mammary epithelial cells (vHMEC) escape this growth barrier and have silenced p16 through promoter methylation. Cells were propagated in 2D cultures in modified MCBD 170 media (MEGM, Lonza) as previously described (Romanov et al, 2001; Hammond et al 1984). All experiments were performed on exponentially growing early passage vHMEC (between 13 to 20 population doublings); RM9, 15, 16 and 18 cease to expand in cell number at population doublings 45, 60, 50 and 53, respectively. […]
(§1) Quantitative PCR: Total RNA was isolated from cells and cDNA synthesized using standard methods. cDNA was subsequently used for quantitative real-time PCR using the standard curve method. […]
(§2) Western Blotting, ELISA and Immunofluorescence: Cell pellets were lysed in T-PER buffer (Pierce). […] Activin A protein levels were measured using the Duo-Set Activin ELISA kit (R&D Systems) following the manufacturer's directions. […] Levels of activin A were determined in cells from all four donors. […] The mean fluorescent intensity of γH2AX signal (voxels) in each nucleus was determined with the Volocity 4.0.0 software package (Improvision) on Z-stacks. […]

[2] = test system: COX-2 and phospho-p38 in vHMEC; assay: exogenous activin A treatment of vHMEC; COX-2 and phospho-p38 by Q-PCR and immunoblot; format: cell-based, human; conditions: exogenous activin A 48 hrs
Text: Cell Culture: Human mammary epithelial cells (vHMEC) were isolated from reduction mammoplasty (RM) of four individuals RM9, RM15, RM16 and RM18. HMEC undergo a spontaneous proliferation barrier between 8 and 12 population doublings. Variant human mammary epithelial cells (vHMEC) escape this growth barrier and have silenced p16 through promoter methylation. Cells were propagated in 2D cultures in modified MCBD 170 media (MEGM, Lonza) as previously described (Romanov et al, 2001; Hammond et al 1984). All experiments were performed on exponentially growing early passage vHMEC (between 13 to 20 population doublings); RM9, 15, 16 and 18 cease to expand in cell number at population doublings 45, 60, 50 and 53, respectively. Activin A (Sigma) and the p38 inhibitor, SB203580, (Sigma) were added to culture media for 48 and 24 hours (respectively) prior to harvest at the doses shown in FIGS. 3 and 4. The same amount of solvent for each molecule was added to the culture media for controls.
as §1, §2
FIGS. 23A-D: Activin A is Up Regulated in vHMEC and Induces COX-2. A. Box plot showing the levels of activin A mRNA measured using Q-PCR in parental vHMEC, or vHMEC over expressing vector (pWP) or TRF2 from 4 donors. p-value was calculated using ANOVA and is shown in the inset. B, Box plot showing the levels of activin A protein measured using ELISA in parental vHMEC or vHMEC over expressing vector (pWP) or TRF2 from 4 donors. […]

Molecule	COX-2 mRNA ([1]; Q-PCR, ANOVA p=0.002)	COX-2 protein levels ([1]; immunoblot)	increase in COX-2 mRNA ([2]; vHMEC from two donors, Q-PCR, ANOVA p=0.001)	increase in COX-2 protein ([2]; vHMEC from two donors, immunoblot)	levels of phospho-p38 ([2]; vHMEC, immunoblot)
C[S+]([O-])c1ccc(-c2nc(-c3ccncc3)c(-c3ccc(F)cc3)[nH]2)cc1 (centres unmarked) [SB203580]	marked decrease	marked decrease	–	–	–
B1	–	–	approximately two-fold	approximately two-fold	increase
